Measurements reported in PMC11272584 (Nature Metabolism, 2024).

Assays:
[1] = target: T1, GIPR M67R (Homo sapiens, UniProt P48546, M67R); test: cAMP accumulation; type: cell-based
T1 construct: host or cells: HEK293
T1 sequence (P48546 22-466 M67R): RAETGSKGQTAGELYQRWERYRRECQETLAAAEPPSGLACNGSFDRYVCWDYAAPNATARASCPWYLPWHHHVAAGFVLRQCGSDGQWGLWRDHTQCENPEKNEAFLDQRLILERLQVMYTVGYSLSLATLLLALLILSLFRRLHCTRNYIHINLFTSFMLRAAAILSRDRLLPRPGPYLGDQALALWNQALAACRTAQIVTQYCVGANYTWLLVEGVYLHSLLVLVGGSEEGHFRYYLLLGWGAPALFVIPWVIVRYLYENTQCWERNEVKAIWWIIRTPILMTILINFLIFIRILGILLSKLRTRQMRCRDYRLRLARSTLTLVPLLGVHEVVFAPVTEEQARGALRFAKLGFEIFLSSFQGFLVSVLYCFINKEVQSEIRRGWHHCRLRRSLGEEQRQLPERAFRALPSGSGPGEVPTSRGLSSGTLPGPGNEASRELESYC
Protocol: (§1) HEK293 (CRL-1573, American Type Culture Collection) and β-arrestin 1/2 knockout cells, generated from HEK293A[48], were used for cAMP measurement, homologues competition binding and β-arrestin 2 recruitment. […] Both cell lines were cultured at 5% CO2 at 37 °C in Roswell Park Memorial Institute GlutaMAX-I supplemented with 10% fetal bovine serum, 180 units ml^−1 penicillin, and 45 g ml^−1 streptomycin. For the cAMP and binding experiments, cells were transfected with the calcium phosphate precipitation method[49].
(§2) cAMP production was measured with the DiscoverX Hithunter cAMP assay according to the manufacturer’s protocol (DiscoverX). […] On the day of the assay, the cells were washed twice with HEPES-buffered saline (HBS) and incubated with HBS and 1 mM 3-isobutyl-1-methylxanthine for 30 min at 37 °C. […] After the incubation, the assay medium was removed from the plate and the cells were washed with 30 µl PBS and treated with 40 µl enzyme donor–lysis buffer–chemiluminescent reagents and 10 µl cAMP antibodies for 60 min before 40 µl enzyme acceptor solution added. After a 3-h incubation on a shaking table in the dark, the cAMP accumulation was measured based on luminescence with a Perkin Elmer EnVision 2104 Multilabel Microplate Reader. […]

[2] = system: GIPR variants (groups); test: cAMP accumulation; type: cell-based, human; conditions: for In vitro groups (cAMP): cAMP part of the in vitro group; for percentage_camp: cAMP production compared with WT; for Beta, cAMP: in vitro cAMP production per GIPR variant
[3] = system: GIPR variants (groups); test: β-arrestin 2 recruitment (BRET); conditions: for In vitro groups (β-arrestin): arr part of the in vitro group; for Beta, Barr: in vitro β-arrestin recruitment per GIPR variant;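 for all read-outs here: BRET readout of β-arrestin 2 recruitment in transiently transfected HEK293 cells expressing WT GIPR or a GIPR variant plus GPCR kinase 2, Rluc8 donor and citrine acceptor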
Protocol: Both cell lines were cultured at 5% CO2 at 37 °C in Roswell Park Memorial Institute GlutaMAX-I supplemented with 10% fetal bovine serum, 180 units ml^−1 penicillin, and 45 g ml^−1 streptomycin. […] The polyethyleneimine (PEI) transfection method was used for the β-arrestin 2 recruitment assays[50], endosomal signalling and basal receptor localization assays, while the lipofectamine transfection method was used for the internalization assay.
Measurement of β-arrestin 2 recruitment was performed with a BRET assay. Two days before the assay, the HEK293 cells were transiently transfected with either WT GIPR or the GIPR variants together with the donor Rluc8-Arrestin-3-Sp1, the acceptor mem-linker-citrine-SH3 and the GPCR kinase 2 to facilitate β-arrestin 2 recruitment. On assay day, the cells were washed with PBS and resuspended in PBS supplemented with 5 mmol l^−1 glucose. Subsequently, 85 µl of the cell suspension was transferred to a white 96-well plate and 10 µl of 50 µM coelenterazine-h was added.

[4] = target: T2, GIPR R101H (Homo sapiens, UniProt P48546, R101H); test: cAMP accumulation; type: cell-based
T2 construct: host or cells: HEK293
T2 sequence (P48546 22-466 R101H): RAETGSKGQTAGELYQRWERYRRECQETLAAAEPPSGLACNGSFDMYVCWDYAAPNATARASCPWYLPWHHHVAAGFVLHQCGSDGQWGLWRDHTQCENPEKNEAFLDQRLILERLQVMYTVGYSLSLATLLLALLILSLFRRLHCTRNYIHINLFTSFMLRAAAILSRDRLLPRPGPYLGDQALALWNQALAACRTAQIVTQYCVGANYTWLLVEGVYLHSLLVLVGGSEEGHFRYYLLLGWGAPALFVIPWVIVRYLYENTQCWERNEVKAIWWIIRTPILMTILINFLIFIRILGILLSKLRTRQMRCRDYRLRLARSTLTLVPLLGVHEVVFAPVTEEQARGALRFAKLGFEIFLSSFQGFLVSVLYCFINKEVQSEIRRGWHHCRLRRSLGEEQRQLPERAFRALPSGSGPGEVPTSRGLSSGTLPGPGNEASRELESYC
Protocol: (§3) HEK293 (CRL-1573, American Type Culture Collection) and β-arrestin 1/2 knockout cells, generated from HEK293A[48], were used for cAMP measurement, homologues competition binding and β-arrestin 2 recruitment. For the internalization assay, endosomal signalling and basal receptor localization experiments, HEK293A (R70507, Thermo Fisher) cells were used. Both cell lines were cultured at 5% CO2 at 37 °C in Roswell Park Memorial Institute GlutaMAX-I supplemented with 10% fetal bovine serum, 180 units ml^−1 penicillin, and 45 g ml^−1 streptomycin. For the cAMP and binding experiments, cells were transfected with the calcium phosphate precipitation method[49]. The polyethyleneimine (PEI) transfection method was used for the β-arrestin 2 recruitment assays[50], endosomal signalling and basal receptor localization assays, while the lipofectamine transfection method was used for the internalization assay.
(§4) cAMP production was measured with the DiscoverX Hithunter cAMP assay according to the manufacturer’s protocol (DiscoverX). […] On the day of the assay, the cells were washed twice with HEPES-buffered saline (HBS) and incubated with HBS and 1 mM 3-isobutyl-1-methylxanthine for 30 min at 37 °C. […] After a 3-h incubation on a shaking table in the dark, the cAMP accumulation was measured based on luminescence with a Perkin Elmer EnVision 2104 Multilabel Microplate Reader. […]

[5] = target: T3, GIPR V99I (Homo sapiens, UniProt P48546, V99I); test: cAMP accumulation; type: cell-based
T3 construct: host or cells: HEK293
T3 sequence (P48546 22-466 V99I): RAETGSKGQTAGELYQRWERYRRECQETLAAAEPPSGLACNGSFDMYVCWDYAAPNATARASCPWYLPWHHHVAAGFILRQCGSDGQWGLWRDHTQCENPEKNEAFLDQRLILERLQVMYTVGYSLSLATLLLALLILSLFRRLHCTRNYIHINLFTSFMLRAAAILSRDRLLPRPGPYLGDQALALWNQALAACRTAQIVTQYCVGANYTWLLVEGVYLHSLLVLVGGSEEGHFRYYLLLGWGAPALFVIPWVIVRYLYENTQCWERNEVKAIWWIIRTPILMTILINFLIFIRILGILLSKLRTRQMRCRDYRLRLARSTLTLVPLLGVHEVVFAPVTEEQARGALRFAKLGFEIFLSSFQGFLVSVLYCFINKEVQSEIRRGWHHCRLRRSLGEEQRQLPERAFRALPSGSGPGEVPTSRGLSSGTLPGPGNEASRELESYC
Protocol: as §3, §4

[6] = target: T4, GIPR Y73H (Homo sapiens, UniProt P48546, Y73H); test: cAMP accumulation; type: cell-based
T4 construct: host or cells: HEK293
T4 sequence (P48546 22-466 Y73H): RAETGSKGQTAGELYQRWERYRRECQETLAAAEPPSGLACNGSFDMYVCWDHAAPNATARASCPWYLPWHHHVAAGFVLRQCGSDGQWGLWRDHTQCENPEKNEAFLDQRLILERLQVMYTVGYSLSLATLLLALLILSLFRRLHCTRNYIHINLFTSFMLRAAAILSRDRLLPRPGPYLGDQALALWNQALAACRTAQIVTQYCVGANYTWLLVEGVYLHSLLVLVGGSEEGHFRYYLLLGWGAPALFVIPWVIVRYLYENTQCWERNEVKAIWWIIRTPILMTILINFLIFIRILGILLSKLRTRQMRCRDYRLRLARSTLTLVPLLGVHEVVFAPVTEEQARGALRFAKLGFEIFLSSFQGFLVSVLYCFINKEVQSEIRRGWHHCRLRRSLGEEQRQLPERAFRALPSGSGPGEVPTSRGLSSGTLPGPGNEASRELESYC
Protocol: as §1, §2

[7] = target: T5, GIPR T116R (Homo sapiens, UniProt P48546, T116R); test: cAMP accumulation; type: cell-based
T5 construct: host or cells: HEK293
T5 sequence (P48546 22-466 T116R): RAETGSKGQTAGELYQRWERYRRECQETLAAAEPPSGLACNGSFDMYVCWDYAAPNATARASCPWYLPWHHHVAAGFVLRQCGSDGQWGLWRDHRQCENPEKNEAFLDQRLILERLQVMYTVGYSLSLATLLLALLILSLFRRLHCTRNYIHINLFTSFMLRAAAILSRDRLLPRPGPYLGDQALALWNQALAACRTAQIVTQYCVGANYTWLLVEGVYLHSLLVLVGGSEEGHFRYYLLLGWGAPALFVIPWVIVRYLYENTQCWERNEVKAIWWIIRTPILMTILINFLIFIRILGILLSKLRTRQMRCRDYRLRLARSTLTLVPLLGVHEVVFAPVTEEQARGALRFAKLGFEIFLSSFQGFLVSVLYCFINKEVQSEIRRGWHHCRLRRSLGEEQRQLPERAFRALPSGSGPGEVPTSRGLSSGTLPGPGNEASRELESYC
Protocol: as §3, §4

B1: M67R (protein)
chain: RAETGSKGQTAGELYQRWERYRRECQETLAAAEPPSGLACNGSFDRYVCWDYAAPNATARASCPWYLPWHHHVAAGFVLRQCGSDGQWGLWRDHTQCENPEKNEAFLDQRLILERLQVMYTVGYSLSLATLLLALLILSLFRRLHCTRNYIHINLFTSFMLRAAAILSRDRLLPRPGPYLGDQALALWNQALAACRTAQIVTQYCVGANYTWLLVEGVYLHSLLVLVGGSEEGHFRYYLLLGWGAPALFVIPWVIVRYLYENTQCWERNEVKAIWWIIRTPILMTILINFLIFIRILGILLSKLRTRQMRCRDYRLRLARSTLTLVPLLGVHEVVFAPVTEEQARGALRFAKLGFEIFLSSFQGFLVSVLYCFINKEVQSEIRRGWHHCRLRRSLGEEQRQLPERAFRALPSGSGPGEVPTSRGLSSGTLPGPGNEASRELESYC
For B1, the “Efficacy at 100pmol (cAMP)” value [1] was 0.1344, the “In vitro groups (cAMP)” value [2] was “LoF_camp” and the percentage_camp [2] was under 50% cAMP. For the same molecule, the “Beta, cAMP” value [2] was 0.1344, the “In vitro groups (β-arrestin)” value [3] was “WT-like_arr” and the “Beta, Barr” value [3] was 1.452.

B2: R101H (protein)
chain: RAETGSKGQTAGELYQRWERYRRECQETLAAAEPPSGLACNGSFDMYVCWDYAAPNATARASCPWYLPWHHHVAAGFVLHQCGSDGQWGLWRDHTQCENPEKNEAFLDQRLILERLQVMYTVGYSLSLATLLLALLILSLFRRLHCTRNYIHINLFTSFMLRAAAILSRDRLLPRPGPYLGDQALALWNQALAACRTAQIVTQYCVGANYTWLLVEGVYLHSLLVLVGGSEEGHFRYYLLLGWGAPALFVIPWVIVRYLYENTQCWERNEVKAIWWIIRTPILMTILINFLIFIRILGILLSKLRTRQMRCRDYRLRLARSTLTLVPLLGVHEVVFAPVTEEQARGALRFAKLGFEIFLSSFQGFLVSVLYCFINKEVQSEIRRGWHHCRLRRSLGEEQRQLPERAFRALPSGSGPGEVPTSRGLSSGTLPGPGNEASRELESYC
For B2, the “Efficacy at 100pmol (cAMP)” value [4] was 0, the “In vitro groups (cAMP)” value [2] was “LoF_camp” and the percentage_camp [2] was under 50% cAMP. The “Beta, cAMP” value [2] was 0, the “In vitro groups (β-arrestin)” value [3] was “LoF_arr” and the “Beta, Barr” value [3] was 0.

B3: V99I (protein)
chain: RAETGSKGQTAGELYQRWERYRRECQETLAAAEPPSGLACNGSFDMYVCWDYAAPNATARASCPWYLPWHHHVAAGFILRQCGSDGQWGLWRDHTQCENPEKNEAFLDQRLILERLQVMYTVGYSLSLATLLLALLILSLFRRLHCTRNYIHINLFTSFMLRAAAILSRDRLLPRPGPYLGDQALALWNQALAACRTAQIVTQYCVGANYTWLLVEGVYLHSLLVLVGGSEEGHFRYYLLLGWGAPALFVIPWVIVRYLYENTQCWERNEVKAIWWIIRTPILMTILINFLIFIRILGILLSKLRTRQMRCRDYRLRLARSTLTLVPLLGVHEVVFAPVTEEQARGALRFAKLGFEIFLSSFQGFLVSVLYCFINKEVQSEIRRGWHHCRLRRSLGEEQRQLPERAFRALPSGSGPGEVPTSRGLSSGTLPGPGNEASRELESYC
For B3, the “Efficacy at 100pmol (cAMP)” value [5] was 0.04155, the “In vitro groups (cAMP)” value [2] was “LoF_camp” and the percentage_camp [2] was under 50% cAMP. The “Beta, cAMP” value [2] was 0.04155, the “In vitro groups (β-arrestin)” value [3] was “WT-like_arr” and the “Beta, Barr” value [3] was 0.6225.

B4: Y73H (protein)
chain: RAETGSKGQTAGELYQRWERYRRECQETLAAAEPPSGLACNGSFDMYVCWDHAAPNATARASCPWYLPWHHHVAAGFVLRQCGSDGQWGLWRDHTQCENPEKNEAFLDQRLILERLQVMYTVGYSLSLATLLLALLILSLFRRLHCTRNYIHINLFTSFMLRAAAILSRDRLLPRPGPYLGDQALALWNQALAACRTAQIVTQYCVGANYTWLLVEGVYLHSLLVLVGGSEEGHFRYYLLLGWGAPALFVIPWVIVRYLYENTQCWERNEVKAIWWIIRTPILMTILINFLIFIRILGILLSKLRTRQMRCRDYRLRLARSTLTLVPLLGVHEVVFAPVTEEQARGALRFAKLGFEIFLSSFQGFLVSVLYCFINKEVQSEIRRGWHHCRLRRSLGEEQRQLPERAFRALPSGSGPGEVPTSRGLSSGTLPGPGNEASRELESYC
B4 was tested, and the “Efficacy at 100pmol (cAMP)” value [6] was 0.06277, the “In vitro groups (cAMP)” value [2] was “LoF_camp” and the percentage_camp [2] was under 50% cAMP. For the same molecule, the “Beta, cAMP” value [2] was 0.06277, the “In vitro groups (β-arrestin)” value [3] was “WT-like_arr” and the “Beta, Barr” value [3] was 1.323.

B5: T116R (protein)
chain: RAETGSKGQTAGELYQRWERYRRECQETLAAAEPPSGLACNGSFDMYVCWDYAAPNATARASCPWYLPWHHHVAAGFVLRQCGSDGQWGLWRDHRQCENPEKNEAFLDQRLILERLQVMYTVGYSLSLATLLLALLILSLFRRLHCTRNYIHINLFTSFMLRAAAILSRDRLLPRPGPYLGDQALALWNQALAACRTAQIVTQYCVGANYTWLLVEGVYLHSLLVLVGGSEEGHFRYYLLLGWGAPALFVIPWVIVRYLYENTQCWERNEVKAIWWIIRTPILMTILINFLIFIRILGILLSKLRTRQMRCRDYRLRLARSTLTLVPLLGVHEVVFAPVTEEQARGALRFAKLGFEIFLSSFQGFLVSVLYCFINKEVQSEIRRGWHHCRLRRSLGEEQRQLPERAFRALPSGSGPGEVPTSRGLSSGTLPGPGNEASRELESYC
With B5 the “Efficacy at 100pmol (cAMP)” value [7] was 0.03526, the “In vitro groups (cAMP)” value [2] was “LoF_camp” and the percentage_camp [2] was under 50% cAMP. The “Beta, cAMP” value [2] was 0, the “In vitro groups (β-arrestin)” value [3] was “WT-like_arr” and the “Beta, Barr” value [3] was 0.6218.
